# Results: patent US20150259402A1
# Target: Clostridium difficile toxin B (Clostridium difficile) (UniProt P18177)
# Assay: cell-based or functional assay
# Clostridium difficile toxin B (Clostridium difficile), sequence (P18177 2-2366 limits assumed): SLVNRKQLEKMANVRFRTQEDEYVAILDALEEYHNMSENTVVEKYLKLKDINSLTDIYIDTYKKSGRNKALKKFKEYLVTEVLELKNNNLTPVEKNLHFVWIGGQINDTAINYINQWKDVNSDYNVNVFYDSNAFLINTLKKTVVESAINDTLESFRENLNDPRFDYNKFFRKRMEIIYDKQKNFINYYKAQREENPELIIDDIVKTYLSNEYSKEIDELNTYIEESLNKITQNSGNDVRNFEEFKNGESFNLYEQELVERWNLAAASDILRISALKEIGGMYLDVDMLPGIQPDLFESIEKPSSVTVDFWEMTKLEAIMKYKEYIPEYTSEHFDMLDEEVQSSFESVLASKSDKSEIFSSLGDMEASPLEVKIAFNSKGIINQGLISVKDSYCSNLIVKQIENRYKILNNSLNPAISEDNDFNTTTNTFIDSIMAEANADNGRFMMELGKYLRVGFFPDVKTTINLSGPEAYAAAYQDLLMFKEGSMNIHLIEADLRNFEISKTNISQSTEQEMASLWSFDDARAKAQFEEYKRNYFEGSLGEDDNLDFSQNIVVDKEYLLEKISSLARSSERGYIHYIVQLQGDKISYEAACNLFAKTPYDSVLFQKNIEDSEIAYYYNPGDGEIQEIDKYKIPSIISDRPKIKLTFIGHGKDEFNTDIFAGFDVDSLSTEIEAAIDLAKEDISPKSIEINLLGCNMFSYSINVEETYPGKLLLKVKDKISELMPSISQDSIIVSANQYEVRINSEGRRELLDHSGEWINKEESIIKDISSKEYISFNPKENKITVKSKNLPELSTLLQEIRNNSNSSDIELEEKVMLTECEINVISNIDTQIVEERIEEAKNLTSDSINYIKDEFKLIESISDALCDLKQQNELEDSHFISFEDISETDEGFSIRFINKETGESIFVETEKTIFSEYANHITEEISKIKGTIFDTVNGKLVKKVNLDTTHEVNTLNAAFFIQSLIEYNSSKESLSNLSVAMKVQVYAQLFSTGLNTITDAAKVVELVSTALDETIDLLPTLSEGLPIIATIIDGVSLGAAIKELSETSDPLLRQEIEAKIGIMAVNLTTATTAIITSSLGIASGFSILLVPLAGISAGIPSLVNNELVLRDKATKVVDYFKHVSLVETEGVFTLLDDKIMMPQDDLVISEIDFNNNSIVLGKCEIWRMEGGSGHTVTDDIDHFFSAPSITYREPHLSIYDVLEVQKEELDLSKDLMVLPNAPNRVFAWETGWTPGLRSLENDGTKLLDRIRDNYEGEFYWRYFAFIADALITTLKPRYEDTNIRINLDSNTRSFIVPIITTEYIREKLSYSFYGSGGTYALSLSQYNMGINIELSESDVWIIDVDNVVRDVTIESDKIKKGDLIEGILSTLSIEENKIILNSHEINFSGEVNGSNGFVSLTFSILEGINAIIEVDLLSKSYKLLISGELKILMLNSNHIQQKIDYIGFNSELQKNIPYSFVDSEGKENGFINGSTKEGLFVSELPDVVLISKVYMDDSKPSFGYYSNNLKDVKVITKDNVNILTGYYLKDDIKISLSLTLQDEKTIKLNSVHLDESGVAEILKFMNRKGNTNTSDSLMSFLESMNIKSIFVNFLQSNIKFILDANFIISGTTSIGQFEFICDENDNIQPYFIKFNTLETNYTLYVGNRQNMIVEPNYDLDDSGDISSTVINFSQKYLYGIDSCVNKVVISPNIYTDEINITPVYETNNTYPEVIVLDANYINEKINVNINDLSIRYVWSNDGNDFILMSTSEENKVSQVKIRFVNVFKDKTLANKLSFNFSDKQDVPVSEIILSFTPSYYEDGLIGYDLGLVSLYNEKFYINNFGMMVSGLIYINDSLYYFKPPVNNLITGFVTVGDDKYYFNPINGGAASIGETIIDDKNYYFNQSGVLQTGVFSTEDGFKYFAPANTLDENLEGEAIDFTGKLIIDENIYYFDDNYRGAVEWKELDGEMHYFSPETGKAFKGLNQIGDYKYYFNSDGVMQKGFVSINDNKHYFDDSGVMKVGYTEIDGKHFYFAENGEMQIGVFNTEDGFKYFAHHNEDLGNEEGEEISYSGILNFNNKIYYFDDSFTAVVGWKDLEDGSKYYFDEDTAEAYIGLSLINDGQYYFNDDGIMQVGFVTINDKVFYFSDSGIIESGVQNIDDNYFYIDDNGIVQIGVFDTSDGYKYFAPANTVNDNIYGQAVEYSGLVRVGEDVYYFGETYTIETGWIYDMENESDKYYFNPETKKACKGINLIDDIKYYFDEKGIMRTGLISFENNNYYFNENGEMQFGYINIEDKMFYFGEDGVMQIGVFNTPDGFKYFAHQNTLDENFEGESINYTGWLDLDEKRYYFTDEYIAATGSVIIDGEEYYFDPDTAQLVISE
substance,measurement,value
MDX1388 (antibody),"neutralizing activity (EC50 value), rounding of toxin B-exposed IMR-90 cells",< 0.1 µg/mL
